This passage reports Kd and IC50 results from patent US20110124556 (published 2011).

For test [1], the target named is T1, human insulin receptor (HIR) (human, UniProt P06213). Put plainly: competition.
Test [2] deals with T1, human insulin receptor (HIR). Put plainly: competition. This is another data set of the same source.
For test [3] the target is unchanged. Description: competition. This is another data set of the same source.
Test [4] shares this target. Description: competition. The source holds these as a separate data set.
Test [5] shares this target. Description: competition. This is another data set of the same source.
In another test the target is sIR (human, UniProt P06213). Description: FP.
Another test deals with sIR-Fc (human, UniProt P06213). Put plainly: competition, TR-FRET vs b-RP9. On the technique in general: Time-resolved FRET reads energy transfer from a long-lived donor to a nearby acceptor.

Like-named read-outs stand apart in the source and are kept apart here. Non-standard residues stand in square brackets, D forms with d. No end group written: not given here. *: point of attachment. Biotin = O=C1N[C@H]2[C@H](CS[C@H]2CCCCC(=O)*)N1; Bpa = N[C@@H](Cc1ccc(C(=O)c2ccccc2)cc1)C(=O)O Where only a bound is given, the exact number is not on record here.

B1: 539 (D8-6aa-RP9) (protein)
chain: MADYKDDDDKWLDQEWAWVQCEVYGRGCPSGGSGGSGSLDESFYDWFERQLGKKAAAGAPVPYPDPLEPRPG
As for B1, in test [1], the Kd worked out at 0.7 nM.

B2: S371 (RP9) (peptide)
chain: GSLDESFYDWFERQLGKK
B2 gave a Kd in test [2] of 830 nM.

B3: RB540 (D8) (peptide)
chain: MADYKDDDDKWLDQEWAWVQCEVYGRGCPSAAAGAPVPYPDPLEPRPG
As to B3, the Kd in test [1] was ~100 nM.

B4: S546 (peptide)
chain 1: SLEEEWAQVECEV
chain 2: [Bpa]GRGCPSGSLDESFYDWFERQ[Bpa]GK(Biotin)
modifications: not fully specified (bridges); cysteine pairing not given here; also: chains 1 and 2 form one continuous chain
In turn, B4 gave a Kd in test [3] of 26 nM.

B5: S440 (peptide)
chain 1: ESFYDWFERQLGGGGK
chain 2: EWAWVQCEVYGRGCPS
B5 displayed a Kd in test [3] of 99 nM.

B6: S265 (peptide)
chain: TGHRLGLDEQFYWWFRDALSG
B6: in test [3], the Kd was determined as 110 nM.

B7: S120 (peptide)
chain: HDPFYSMMKSLLK
Take B7: the Kd in test [3] worked out at 20 nM.

B8: S242 (peptide)
chain: ANFYDWFVAELG
In the case of B8, binding in test [3] was put at a Kd of 20000 nM.

B9: S217 (peptide)
chain 1: SDGFYNAIELLS
chain 2: SDGFYNAIELLS
In test [3], B9 gave a Kd of 3900 nM.

B10: S117 (peptide)
chain: HETFYSMIRSLAK
The molecule B10 registered a dissociation constant (Kd) in test [3] of 27 nM.

B11: S561 (peptide)
chain: SLEEEWAQIECEVWGRGCSGSLDESFYDWFERQL
The molecule B11 yielded a Kd in test [3] of 0.018 nM.

B12: H2C (D117) (peptide)
chain: FHENFYDWFVQRVSKK
In the case of B12, the IC50 in test [4] is 700 nM.

B13: S481 (peptide)
chain: HHHHHHKLDQEWAWVQCEVYGRGCPSESFYDWFERQLG
With B13, in test [3], the Kd came to 1.3 nM.

B14: S264 (peptide)
chain: IQGWEPFYGWFDDVVAQMFEE
In turn, B14 gave a Kd in test [3] of 190 nM.

B15: S509 (peptide)
chain: LDQEWAWVQSEVYGRGSPSESFYDWFERQL
For B15, the Kd in test [3] was found to be 5.7 nM.

B16: S252 (peptide)
chain 1: SDGFYNAIELLSX
chain 2: SDGFYNAIELLSX
modifications: listing feature
Turning to B16, in test [3], the Kd came to 440 nM.

B17: S372 (peptide)
chain: SGSLDESFYDWFERQLGKK
In test [3], B17 gave a Kd of 200 nM.

B18: S415 (peptide)
chain 1: ESFYDWFERQLGKX
chain 2: ESFYDWFERQLGKX
modifications: listing feature
In test [5], B18 gave a Kd of 100 nM.

B19: S532 (peptide)
chain: SLEEEWAWVECEVYGRGCPSGSLDESFYDWFERQL
For the molecule B19, binding in test [3] was put at a Kd of 0.037 nM.

B20: S262 (peptide)
chain: PLCFLQELFGGASLGGYCSG
On to B20, for which binding in test [3] was put at a Kd of 19000 nM.

B21: S223 (peptide)
chain: FHENFYDWAVRQVSKK
In the case of B21, the Kd in test [3] was > 2000 nM.

B22: S233 (peptide)
chain 1: FHENFYDWFVRQVSKKX
chain 2: SDGFYNAIELLSX
modifications: listing feature
In test [3], B22 showed a Kd of 260 nM.

B23: S366 (peptide)
chain: PLRESRNFYDWFVQQLE
As to B23, in test [3], the affinity, expressed as Kd, was 370 nM.

B24: S563 (peptide)
chain 1: SLEEEWAQIQCEVWG
chain 2: R[dN][dC]SESFYDWFERQL
modifications: cysteine pairing not given here
As for B24, in test [3], the Kd came out at 0.014 nM.

B25: S255 (peptide)
chain 1: SDGFYNAIELLSGGGX
chain 2: SDGFYNAIELLSGGGX
modifications: listing feature
For the molecule B25, in test [3], the Kd is 16 nM.

B26: S374 (peptide)
chain 1: XGSLDESFYDWFERQLGKK
chain 2: XGSLDESFYDWFERQLGKK
modifications: not fully specified; listing feature
For the molecule B26, binding in test [2] was characterised by a dissociation constant (Kd) of 180 nM.

B27: S495 (peptide)
chain: LAQEWAWVQCEVYGRGCPSESFYDWFERQL
B27 gave a Kd in test [3] of 2.6 nM.

B28: S517 (peptide)
chain: SIEEEWAQIKCDVWGRGCPSESFYDWFERQL
In test [3], B28 had a Kd of 0.006 nM.

B29: S414 (peptide)
chain 1: ESFYDWFERQLGKX
chain 2: ESFYDWFERQLGKX
modifications: not fully specified; listing feature
With B29, the IC50 is 0.2 nM with sIR and 184 nM in the test with sIR-Fc.

B30: S226 (peptide)
chain: QLEEEWAGVQCEVYGRECPS
B30 displayed a Kd in test [3] of 16000 nM.

B31: RB517 (protein)
chain: DYKDDDDKHLCVLEELFWGASLFGYCSGGGSGGSHLCVLEELFWGASLFGYCSGAAAGAPVPYPDPLEPRAA
The molecule B31 showed a Kd in test [1] of 60 nM.

A word on the Kd: it is the concentration at which binding is half-saturated. A low value points to higher affinity. One may read the IC50 as the midpoint of a concentration-inhibition curve. Low values mean greater potency in that assay, high ones weaker potency in that assay.
